Measurements taken from paper PMC11083479, “A Multi-Faceted Binding Assessment of Aptamers Targeting the SARS-CoV-2 Spike Protein”.
Where two headings read alike, the source gives them in different places.

B1: nCoV-S1-A2 (ssDNA)
DNA: AGCAGCACAGAGGTCAGATGGCAGCTAAGCAGGCGGCTCACAAAACCATTCGCATGCGGCCCTATGCGTGCTACCGTGAA
B2: Aptamer-1 (ssDNA)
DNA: ATCCAGAGTGACGCAGCATCGAGTGGCTTGTTTGTAATGTAGGGTTCCGGTCGTGGGTTGGACACGGTGGCTTAGT
B3: CoV2-RBD-4C (ssDNA)
DNA: ATCCAGAGTGACGCAGCATTTCATCGGGTCCAAAAGGGGCTGCTCGGGATTGCGGATATGGACACGT
B4: MSA5-T4 (ssDNA)
DNA: CTTCCACGGGTTTGGCGTCGGGCCTGGCGGGGGGATAGTGCGGTGGAAG
B5: CoV2-6C3 (ssDNA)
DNA: CGCAGCACCCAAGAACAAGGACTGCTTAGGATTGCGATAGGTTCGG
B6: SP6.34C (ssDNA)
DNA: CCCATGGTAGGTATTGCTTGGTAGCGATAGTGGG
B7: RBD-PB6 (XNA)
RNA: GGGGCCACCAACGACAUUUGUAAUUCCUGGACCGAUACUUCCGUCAGGACAGAGGUUGAUAUAAAUAGUGCCCAUGGAUCC
modifications: 2'-F-modified RNA
B8: Aptamer-2 (ssDNA)
DNA: ATCCAGAGTGACGCAGCAATTACCGATGGCTTGTTTGTAATGTAGGGTTCCGTCGGATTGGACACGGTGGCTTAGT
B9: MSA1-T3 (ssDNA)
DNA: TCCGGTTAATTTATGCTCTACCCGTCCACCTACCGGA
B10: CoV2-RBD-1C (ssDNA)
DNA: CAGCACCGACCTTGTGCTTTGGGAGTGCTGGTCCAAGGGCGTTAATGGACA
B11: SP6.41 (ssDNA)
DNA: CAACCCATGGTAGGTATTGCTTGGTAGGGATAGTGGGCTTG

Key:
[1] = molecular target: SARS-CoV-2 spike RBD, WT, His-tag (SARS-CoV-2 (WT), UniProt P0DTC2 319-541); assay: BLI; BLI: PBS pH 7.4, 1 mM MgCl2 ([…]; flow cytometry 25 C ([…]
[2] = molecular target: SARS-CoV-2 trimeric spike, WT, C-tag (SARS-CoV-2 (WT), UniProt P0DTC2); assay: as above; conditions: protein: recombinant; tags: C-tag
[3] = molecular target: T1, SARS-CoV-2 trimeric spike, WT, His-tag (SARS-CoV-2 (WT), UniProt P0DTC2); assay: BLI; conditions: protein: recombinant; tags: 8xHis (flow cytometry); His
[4] = molecular target: SARS-CoV-2 spike S1, WT, His-tag (SARS-CoV-2 (WT), UniProt P0DTC2 16-685); assay: BLI; conditions: protein: recombinant; tags: His
[5] = molecular target: SARS-CoV-2 spike RBD, WT, C-tag (SARS-CoV-2 (WT), UniProt P0DTC2 319-591); assay: BLI; BLI: PBS pH 7.4, 1 mM MgCl2 ([…]; flow cytometry 25 C ([…]; conditions: protein: recombinant; tags: C-tag; label: with or without biotin; SA-ATTO647N in flow cytometry
[6] = molecular target: SARS-CoV-2 spike RBD, WT, His-tag (SARS-CoV-2 (WT), UniProt P0DTC2 319-541); assay: as above; conditions: protein: recombinant; tags: His; label: with or without biotin; SA-ATTO647N in flow cytometry
[7] = molecular target: SARS-CoV-2 spike S1, WT, His-tag (SARS-CoV-2 (WT), UniProt P0DTC2 16-685); assay: BLI; conditions: protein: recombinant; tags: His; label: with or without biotin; SA-ATTO647N in flow cytometry
[8] = molecular target: T2, SARS-CoV-2 trimeric spike, WT, His-tag (SARS-CoV-2 (WT), UniProt P0DTC2 14-1208); conditions: protein: recombinant, tags: 8xHis (flow cytometry), chain copies: 3, label: with or without biotin, SA-ATTO647N in flow cytometry
[9] = molecular target: T3, ACE2, His-tag (UniProt Q9BYF1 18-740); assay: ELONA; conditions: protein: recombinant; tags: His; label: with or without biotin; SA-ATTO647N in flow cytometry
T3 sequence (Q9BYF1 18-740): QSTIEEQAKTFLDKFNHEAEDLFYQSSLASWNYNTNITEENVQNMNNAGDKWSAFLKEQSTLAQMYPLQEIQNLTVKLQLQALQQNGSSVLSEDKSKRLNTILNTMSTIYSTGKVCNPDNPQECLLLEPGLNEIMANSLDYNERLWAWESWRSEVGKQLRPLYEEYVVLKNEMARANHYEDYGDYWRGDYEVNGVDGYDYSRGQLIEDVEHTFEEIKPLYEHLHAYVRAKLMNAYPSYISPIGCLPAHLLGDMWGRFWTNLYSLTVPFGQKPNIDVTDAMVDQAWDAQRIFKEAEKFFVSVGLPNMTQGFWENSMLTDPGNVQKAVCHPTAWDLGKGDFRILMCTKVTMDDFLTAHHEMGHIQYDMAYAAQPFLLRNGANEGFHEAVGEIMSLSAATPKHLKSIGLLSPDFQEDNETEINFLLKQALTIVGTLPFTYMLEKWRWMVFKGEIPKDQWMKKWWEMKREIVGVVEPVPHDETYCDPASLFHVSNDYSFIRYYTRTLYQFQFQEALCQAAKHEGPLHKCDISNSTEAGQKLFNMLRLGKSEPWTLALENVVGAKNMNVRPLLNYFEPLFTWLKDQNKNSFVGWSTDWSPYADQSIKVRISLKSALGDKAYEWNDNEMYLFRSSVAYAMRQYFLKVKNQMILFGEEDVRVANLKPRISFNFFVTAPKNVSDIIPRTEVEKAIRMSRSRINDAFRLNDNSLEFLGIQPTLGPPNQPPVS

[10] = molecular target: T2, SARS-CoV-2 trimeric spike, WT, His-tag; assay: ELONA; abolished by 0.1 mg/mL dextran sulfate; conditions: protein: recombinant, tags: 8xHis (flow cytometry), chain copies: 3, label: with or without biotin, SA-ATTO647N in flow cytometry
[11] = molecular target: chemokine CCL17, untagged (human, UniProt Q92583 24-94); assay: ELONA; 200 nM aptamer; BLI: PBS pH 7.4, 1 mM MgCl2 (MSA aptamers: 50 mM HEPES pH 7.4, 6 mM KCl, 150 mM NaCl, 2.5 mM CaCl2, 2.5 mM MgCl2), 0.1 mg/mL BSA, 0.02% Tween-20; ELONA 25 C in; conditions: protein: recombinant; tags: none; label: with or without biotin; SA-ATTO647N in flow cytometry
chemokine CCL17, untagged, sequence (Q92583 24-94): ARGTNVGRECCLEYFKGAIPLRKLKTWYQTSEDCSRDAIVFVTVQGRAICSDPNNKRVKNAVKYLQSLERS

[12] = molecular target: T3, ACE2, His-tag; assay: as above; conditions: protein: recombinant; tags: His; label: with or without biotin; SA-ATTO647N in flow cytometry
[13] = molecular target: SARS-CoV-2 trimeric spike, WT, C-tag (SARS-CoV-2 (WT), UniProt P0DTC2 16-1208); conditions: protein: recombinant; tags: C-tag; chain copies: 3; label: with or without biotin; SA-ATTO647N in flow cytometry
[14] = molecular target: T1, SARS-CoV-2 trimeric spike, WT, His-tag; assay: flow cytometry; 37 C; non-binding control; conditions: protein: recombinant, tags: 8xHis (flow cytometry)
[15] = molecular target: SARS-CoV-2 spike RBD, WT, C-tag (SARS-CoV-2 (WT), UniProt P0DTC2 319-591); assay: BLI; BLI: PBS pH 7.4, 1 mM MgCl2 ([…]; flow cytometry 25 C ([…]
[16] = molecular target: T1, SARS-CoV-2 trimeric spike, WT, His-tag; assay: flow cytometry; conditions: protein: recombinant, tags: 8xHis (flow cytometry)
[17] = molecular target: T1, SARS-CoV-2 trimeric spike, WT, His-tag; assay: ELONA; conditions: protein: recombinant; tags: 8xHis (flow cytometry); His

| Binder | binding result [1] | binding result [2] | binding result [4] | binding result [5] | binding result [7] | also measured |
| --- | --- | --- | --- | --- | --- | --- |
| B1 | no binding |  |  |  |  |  |
| B2 | binds | no binding | binds |  |  | binding result [3]: binds |
| B3 |  |  |  | no binding | binds | binding result [6]: binds; binding result [8]: binds; binding result [9]: binds |
| B4 |  |  |  | no binding | binds | binding result [10]: binds; binding result [11]: no binding; binding result [12]: no binding; binding result [13]: no binding |
| B5 |  |  |  | no binding | binds | binding result [6]: binds; binding result [8]: binds; binding result [13]: binds |
| B6 |  |  |  |  |  | binding result [14]: no binding |
| B7 | binds | binds | binds |  |  | binding result [15]: binds; binding result [16]: binds |
| B8 | binds | no binding | binds |  |  | binding result [3]: binds |
| B9 | no binding | no binding |  |  |  | binding result [3]: binds |
| B10 |  |  |  | no binding | binds | binding result [6]: binds; binding result [8]: binds |
| B11 | no binding | binds | no binding |  |  | binding result [17]: binds |
